The results in this text go back to US20250320295A1 (INHIBRX BIOSCIENCES, published 2025).

Positions count from the first letter of the chain named. In names and notes the source's numbering stands.

Experiment [1] addresses T1, Human CD8a (human, UniProt P01732 22-235).
T1 construct: also called CD8α; human CD8a-FL
The experiment can be described thus: flow cytometry, isolated human T cells, PI-CD4- gate (table title says transfected HEK293F cells). Here is the method:
Binding of polypeptides comprising a humanized CD8a-binding VHH domain, an Fc region, and, in certain polypeptides, a mutated, attenuated IL-2 fused to the C-terminus of the Fc region, was assessed by flow cytometry on isolated human T cells. […] Complexes or polypeptides that are not labeled “KiH” form homodimers under physiologic conditions. The isolated cells were plated in a 96-well plate at 50,000 cells per well in FACS buffer (PBS, 1% BSA, 0.1% NaN₃, pH 7.4). Test polypeptides were then diluted to 2× the final concentration of 200 nM, and a 5-fold serial dilution was made. FACS buffer with no polypeptide was used as a secondary antibody-only control. Test polypeptides were added to an equal volume of cells, and assay plates were incubated for 30 minutes at 4° C. After washing twice with 150 μL of FACS buffer per well, the cells were resuspended in FACS buffer with a fluorescently-labeled anti-human IgG antibody diluted 1:1000 to detect CD8α binding and fluorescently labeled anti-CD4 antibody (clone OKT4, 1:200). Propidium iodide (PI) was added at 1:2000 to distinguish live cells from dead cells. Assay plates were incubated at 4° C. for 30 minutes. After one additional wash with 150 μL of FACS buffer, polypeptide bound to CD8α was detected by flow cytometry on PI-CD4− and on PI-CD4+ cells. Binding was measured on these cell populations as mean fluorescence intensity (MFI) at 647 nm. Flow cytometric detection was performed on an ACEA Biosciences Novocyte-Quanteon Flow Cytometer. The data were plotted and analyzed using GraphPad Prism analysis software.
A general note: In flow cytometry, cells or beads pass a laser one at a time.

The target of experiment [2] is T1, Human CD8a. Kind of experiment: flow cytometry, HEK293F cells transfected with human CD8a (citrine+ gate). Here is the method:
Binding of polypeptides comprising a humanized CD8a-binding VHH domain, an Fc region, and, in certain polypeptides, a mutated, attenuated IL-2 fused to the C-terminus of the Fc region, was assessed by flow cytometry on HEK293F cells transiently transfected with a plasmid encoding human CD8α or CD8b chains. […] Complexes or polypeptides that are not labeled “KiH” form homodimers under physiologic conditions. The transfected cells were plated in a 96-well plate at 50,000 cells per well in FACS buffer (PBS, 1% BSA, 0.1% NaN₃, pH 7.4). Test polypeptides were then diluted to 2× the final concentration of 500 nM, and a 6-fold serial dilution was made. FACS buffer with no polypeptide was used as a secondary antibody-only control. Test polypeptides were added to an equal volume of cells, and assay plates were incubated for 30 minutes at 4° C. After washing twice with 150 μL of FACS buffer per well, the cells were resuspended in FACS buffer with a fluorescently-labeled anti-human Fc antibody diluted 1:1000 to detect CD8 binding. Assay plates were incubated at 4° C. for 30 minutes. After one additional wash with 150 μL of FACS buffer, polypeptide bound to CD8 was detected by flow cytometry on cells positive for the transfection marker citrine. Binding was measured on these cell populations as mean fluorescence intensity (MFI) at 647 nm. Flow cytometric detection was performed on an IntelliCyt iQue Screener Plus. The data were plotted and analyzed using GraphPad Prism analysis software.

For experiment [3], the target named is T2, Cynomolgus monkey CD8a (cynomolgus monkey).
T2 construct: whole, on cells; On transfected HEK293F cells (full length) or natively on cynomolgus PBMC T cells; also called cynomolgus CD8a-FL; cynomolgus monkey CD8α
Kind of experiment: flow cytometry, cynomolgus PBMC, PI-CD3+CD4- gate. Here is the method: Binding of four polypeptides comprising a humanized CD8a-binding VHH domain fused to an xELL fc region was assessed by flow cytometry on isolated human T cells and on isolated human or cynomolgus monkey peripheral blood mononuclear cells (PBMC). The isolated cells were plated in a 96-well plate at 200,000 cells per well for cynomolgus monkey PBMC, and 100,000 cells per well for human T cells in FACS buffer (PBS, 1% BSA, 0.1% NaN₃, pH 7.4). […] FACS buffer alone was used as a secondary antibody-only control. Polypeptide dilutions were added to an equal volume of cells, and assay plates were incubated for 30 minutes at 4° C. After washing twice with 150 μL of FACS buffer per well, the cells were resuspended in FACS buffer with a fluorescently labeled anti-human IgG antibody diluted 1:1000 to detect CD8α binding, fluorescently labeled anti-CD3 antibody (clone SP34.2, 1:50, for PBMC preparations only), and fluorescently labeled anti-CD4 antibody (clone OKT4, 1:100). Propidium iodide (PI) was added at 1:2000 to distinguish live cells from dead cells. Assay plates were incubated at 4° C. for 30 minutes. After one additional wash with 150 μL of FACS buffer CD8α binding was detected by flow cytometry on PI−(CD3+) CD4− cells. Binding was measured on these cell populations as mean fluorescence intensity (MFI) at 647 nm. Flow cytometric detection was performed on an ACEA Biosciences Novocyte-Quanteon Flow Cytometer. The data were plotted and analyzed using GraphPad Prism analysis software. The results are shown in Table 12 and 13 and in FIGS. 10A-D.

T1 sequence (P01732 22-235): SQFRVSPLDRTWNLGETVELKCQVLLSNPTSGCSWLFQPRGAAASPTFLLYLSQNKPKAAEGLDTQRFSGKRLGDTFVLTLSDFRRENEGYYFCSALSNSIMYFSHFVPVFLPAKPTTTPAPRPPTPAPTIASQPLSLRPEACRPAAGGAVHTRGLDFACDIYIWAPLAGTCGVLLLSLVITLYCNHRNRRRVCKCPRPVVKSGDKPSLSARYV

B1: hzB7v30-xELL-KiH Fc-IL-2 mutant (Fc fusion)
chain 1: QVQLVQSGGGEVQPGGSLRLSCAASGFTFDDYAMSWVRQAPGKGLEWVSTITWDAGGTDYAAPVKGRFTISRDNAKNTVYLQMSSLRAEDTAVYYCAKGSPELQYDTWGQGTLVTVKPDKTHTCPPCPAPGGPSVFLFPPKPKDTLMISRTPEVTCVVVDVSHEDPEVKFNWYVDGVEVHNAKTKPREEQYNSTYRVVSVLTVLHQDWLNGKEYKCKVSNKALPAPIEKTISKAKGQPREPQVCTLPPSRDELTKNQVSLSCAVKGFYPSDIAVEWESNGQPENNYKTTPPVLDSDGSFFLVSKLTVDKSRWQQGNVFSCSVMHEALHNRYTQKSLSLSPGK
chain 2: QVQLVQSGGGEVQPGGSLRLSCAASGFTFDDYAMSWVRQAPGKGLEWVSTITWDAGGTDYAAPVKGRFTISRDNAKNTVYLQMSSLRAEDTAVYYCAKGSPELQYDTWGQGTLVTVKPDKTHTCPPCPAPGGPSVFLFPPKPKDTLMISRTPEVTCVVVDVSHEDPEVKFNWYVDGVEVHNAKTKPREEQYNSTYRVVSVLTVLHQDWLNGKEYKCKVSNKALPAPIEKTISKAKGQPREPQVYTLPPCRDELTKNQVSLWCLVKGFYPSDIAVEWESNGQPENNYKTTPPVLDSDGSFFLYSKLTVDKSRWQQGNVFSCSVMHEALHNHYTQKSLSLSPG
notes: Knob-in-hole heterodimer: VHH on the N-terminus of each Fc, mutant IL-2 only on the knob Fc; not shown: mutant, attenuated IL-2 fused to the C-terminus of the knob Fc
As for B1, in experiment [1], the “Bmax (MFI)” value was 247000 MFI and the Kd was 0.0943 nM.

B2: hzB7v21-xELL-P329G-KiH Fc-IL-2 mutant (Fc fusion)
chain 1: B1 chain 2 with G56E, A62E, P63S, P224G, Y244C, C249S, W261S, L263A, Y302V, H330R
chain 2: B1 chain 2 with G56E, A62E, P63S, P224G
notes: as for B1
In turn, B2 registered a Kd in experiment [2] of 5.23 nM.

B3: hzB7v29-xELL-Fc (Fc fusion)
chain: B1 chain 1 with G56E, D59Y, C244Y, S261T, A263L, V302Y, R330H
notes: Homodimeric VHH-human IgG1 Fc xELL fusion
In the case of B3, the Kd in experiment [3] stood at 0.0317 nM.

B4: hzB7v41-xELL-Fc (Fc fusion)
chain: B1 chain 1 with D59Y, K117R, C244Y, S261T, A263L, V302Y, R330H
notes: as for B3
B4: the Kd in experiment [3] was 0.0499 nM.

B5: hzB7v39-xELL-KiH Fc-IL-2 mutant (Fc fusion)
chain 1: B1 chain 1 with Q13K, D54S, G56E, D59Y
chain 2: B1 chain 2 with Q13K, D54S, G56E, D59Y
notes: as for B1
Regarding B5, binding in experiment [1] was put at a Kd of 0.148 nM.

B6: hzB7v24-xELL-P329G-KiH Fc-IL-2 mutant (Fc fusion)
chain 1: QVQLVQSGGGEVQPGGSLRLSCAASGFTFSSYAMSWVRQAPGKGLEWVSTITWDAEGTDYAESVKGRFTISRDNAKNTVYLQMSSLRAEDTAVYYCAKGSPELQYDTWGQGTLVTVKPDKTHTCPPCPAPGGPSVFLFPPKPKDTLMISRTPEVTCVVVDVSHEDPEVKFNWYVDGVEVHNAKTKPREEQYNSTYRVVSVLTVLHQDWLNGKEYKCKVSNKALGAPIEKTISKAKGQPREPQVCTLPPSRDELTKNQVSLSCAVKGFYPSDIAVEWESNGQPENNYKTTPPVLDSDGSFFLVSKLTVDKSRWQQGNVFSCSVMHEALHNRYTQKSLSLSPG
chain 2: B1 chain 2 with D30S, D31S, G56E, A62E, P63S, P224G
notes: as for B1
For B6, in experiment [2], the “Bmax (MFI)” value turned out to be 1.28e+07 MFI and the affinity, expressed as Kd, was 6.54 nM.

B7: hzB7v20-xELL-P329G-KiH Fc-IL-2 mutant (Fc fusion)
chain 1: B6 chain 1 with Q1E, S30D, S31D
chain 2: B1 chain 2 with Q1E, G56E, A62E, P63S, P224G
notes: as for B1
The molecule B7 returned a Kd in experiment [2] of 4.48 nM.

B8: hzB7v34-xELL-KiH Fc-IL-2 mutant (Fc fusion)
chain 1: B1 chain 1 with D54S
chain 2: B1 chain 2 with D54S
notes: as for B1
For the molecule B8, in experiment [1], the “Bmax (MFI)” value stood at 76100 MFI and the Kd is 4.05 nM.

B9: hzB7v33-xELL-KiH Fc-IL-2 mutant (Fc fusion)
chain 1: B1 chain 1 with D54S, G56E, D59Y
chain 2: B1 chain 2 with D54S, G56E, D59Y
notes: as for B1
For the molecule B9, the Kd in experiment [1] is 0.139 nM.

B10: hzB7v28-xELL-P329G-KiH Fc-IL-2 mutant (Fc fusion)
chain 1: B6 chain 1 with S30D, S31D, E62A, S63P
chain 2: B1 chain 2 with G56E, P224G
notes: as for B1
For the molecule B10, in experiment [2], the “Bmax (MFI)” value was found to be 1.37e+07 MFI and binding was put at a Kd of 2.84 nM.

B11: hzB7v35-xELL-Fc (Fc fusion)
chain: B1 chain 1 with Q13K, G56E, D59Y, C244Y, S261T, A263L, V302Y, R330H
notes: as for B3
The molecule B11 displayed a dissociation constant Kd in experiment [3] of 0.0236 nM.

B12: hzB7v19-xELL-P329G-KiH Fc-IL-2 mutant (Fc fusion)
chain 1: B6 chain 1 with Q6E, S30D, S31D
chain 2: B1 chain 2 with Q6E, G56E, A62E, P63S, P224G
notes: as for B1
Take B12: binding in experiment [2] was put at a Kd of 7.5 nM.

B13: hzB7v27-xELL-P329G-KiH Fc-IL-2 mutant (Fc fusion)
chain 1: B6 chain 1 with S30D, S31D, D59Y
chain 2: B1 chain 2 with G56E, D59Y, A62E, P63S, P224G
notes: as for B1
As for B13, in experiment [2], the “Bmax (MFI)” value came out at 1.45e+07 MFI and binding was put at a Kd of 3.18 nM.

B14: hzB7v26-xELL-P329G-KiH Fc-IL-2 mutant (Fc fusion)
chain 1: B6 chain 1 with S30D, S31D, E56G
chain 2: B1 chain 2 with A62E, P63S, P224G
notes: as for B1
Turning to B14, in experiment [2], the “Bmax (MFI)” value was determined as 1.52e+07 MFI and the Kd amounted to 4.55 nM.

B15: hzB7v23-xELL-P329G-KiH Fc-IL-2 mutant (Fc fusion)
chain 1: B6 chain 1 with S30D
chain 2: B1 chain 2 with D31S, G56E, A62E, P63S, P224G
notes: as for B1
On to B15, for which, in experiment [2], the “Bmax (MFI)” value turned out to be 1.43e+07 MFI and binding was put at a Kd of 3.9 nM.

B16: hzB7v25-xELL-P329G-KiH Fc-IL-2 mutant (Fc fusion)
chain 1: B6 chain 1 with S30D, S31D, D54S
chain 2: B1 chain 2 with D54S, G56E, A62E, P63S, P224G
notes: as for B1
For the molecule B16, in experiment [2], the “Bmax (MFI)” value came to 1.45e+07 MFI and the Kd is 3.28 nM.

B17: hzB7v37-xELL-KiH Fc-IL-2 mutant (Fc fusion)
chain 1: B1 chain 1 with Q13K, D59Y
chain 2: B1 chain 2 with Q13K, D59Y
notes: as for B1
On to B17, for which, in experiment [1], the “Bmax (MFI)” value amounted to 272000 MFI and the Kd stood at 0.0884 nM.

As usually defined, the Kd is the constant that tells how readily two partners part at equilibrium.
